Earlier results, collected in article PMC10461426.
Where two headings read alike, the source gives them in different places. Values belong to the substance of their own block, whether it stands above or below them.

Columns and labels:
IL-1R1 (Homo sapiens) [1] = biological target: IL-1R1 (Homo sapiens) (UniProt P14778)
IL-1R1 (Homo sapiens) [2] = biological target: IL-1R1 (Homo sapiens) (UniProt P14778); remark: listed apart in the source
IL-1R1 (Homo sapiens) [3] = biological target: IL-1R1 (Homo sapiens) (UniProt P14778); remark: listed apart in the source

- Kd (IL-1R1 (Homo sapiens) [1]): 38 nM
Substance: IL-1Ra (from UniProt P18510)

- Kd (IL-1R1 (Homo sapiens) [2]): 21 nM
Substance: IL-1beta (from UniProt P01584)

- Kd (IL-1R1 (Homo sapiens) [3]): 93 nM
Substance: IL-38 (from UniProt Q8WWZ1)
